# In patent US20150071856A1, “ANTAGONISTIC PEPTIDES FOR FRIZZLED-1 AND FRIZZLED-2” (Universiteit Maastricht, priority 2013, published 2015):
# B1: Wnt3a: natural ligand of frizzled, natural stimulus for the canonical pathway; recombinant or conditioned medium (protein)
# chain: SYPIWWSLAVGPQYSSLGSQPILCASIPGLVPKQLRFCRNYVEIMPSVAEGIKIGIQECQHQFRGRRWNCTTVHDSLAIFGPVLDKATRESAFVHAIASAGVAFAVTRSCAEGTAAICGCSSRHQGSPGKGWKWGGCSEDIEFGGMVSREFADARENRPDARSAMNRHNNEAGRQAIASHMHLKCKCHGLSGSCEVKTCWWSQPDFRAIGDFLKDKYDSASEMVVEKHRESRGWVETLRPRYTYFKVPTERDLVYYEASPNFCEPNPETGSFGTRDRTCNVSSHGIDGCDLLCCGRGHNARAERRREKCRCVFHWCCYVSCQECTRVYDVHTCK
# Tests used:
# canonical Wnt signaling = experiment: Activity assay (Example 1): TOPflash luciferase reporter in HEK (HEK293-superTOPflash) cells, receptor not specified; format: cell-based, human; details: no Fzd transfection
# frizzled-2 (rFzd-2) = biological target: T1, frizzled-2 (rFzd-2) (Rattus norvegicus, UniProt Q08464); experiment: Activity assay: luciferase reporter in HEK superTOPflash cells transfected with frizzled-2; format: cell-based; details: FIG. 3
# T1 construct: expressed in transfected cells; host or cells: HEK293 superTOPflash (transient, Fugene6, pcDNA3.1/hygro)
# Procedure: Human embryonic kidney (HEK) cells were used for screening. These cells have a luciferase construct stably transfected into the genome (see FIG. 2A), such that when the frizzled receptor is activated and β-catenin is increased, the luciferase is activated by transcription and light can be measured.
# The peptides were tested by transfecting the frizzled-1 or the frizzled-2 receptor and addition of UM206(S-S) to the cell culture. For testing antagonistic activity, UM206 was added and the natural ligand Wnt3a was added, which is a natural stimulus for the canonical pathway.
# Day 2: Transfection 12-Well Plates • heat Fugene6 and DNA 15 minutes at RT • 2 ml serum-free medium in tube • add 3 μl fugene • add 2 μg DNA • incubate 30 minutes at RT • wash with PBS • add 50 μl transfectiemix • add 1 ml antibiotica-free medium
# Day 3: Add Conditioned Medium or UM206
# Day 4: Luciferase Activity Measurements • remove medium • wash with PBS • add 500 μl ⅕ lysisbuffer • shake for 60 minutes • centrifuge in tube • 20 μl lysaat and 50 μl luciferase in new tube for measurement • vortex • measure
# Three areas of high homology that contained two cysteines are underlined (UM207), (UM208) and (UM206). In FIGS. 9B through 9D, the inhibitory effect of these three peptides on Wnt3a-induced luciferase activity in HEK293-superTOPflash is shown. […]
# Fzd-1 and -2 = experiment: Binding of rhodamine-labeled UM206 to frozen sections of mouse kidney and small intestine and its blocking; details: UM206-rhodamine 1.10^−8 M; UM207 1.10^−7 M, Wnt3a 1.10^−8 M
# Procedure: Specificity of the binding site was confirmed by prior incubation of the tissue sections with UM207 (1.10^−7 M) or recombinant Wnt3a (1.10^−8 M).
# One-half of the hearts of the mice was embedded in paraffin and cut in 4 μm sections. The paraffin sections were rehydrated and washed in PBS. One section was stained with AZAN, allowing an accurate determination of the infarct size. To visualize the myofibroblasts in the infarct area, the sections were incubated with an antibody directed against α-smooth muscle actin (Sigma-Aldrich), followed by incubation with the peroxidase-conjugated secondary antibody (Vector laboratories). Nuclei were visualized by hematoxylin. Photos were taken with a Leica (CTR500, 63×/0.85) camera and analyzed with the Quantimet program (QWin/QGo). An examiner blinded to the groups of the animals obtained all measurements. For the experiments with Rhodamine-labeled UM206, frozen sections (4 μm) of mouse kidney and small intestine were used.
# T1 sequence (Q08464 29-570): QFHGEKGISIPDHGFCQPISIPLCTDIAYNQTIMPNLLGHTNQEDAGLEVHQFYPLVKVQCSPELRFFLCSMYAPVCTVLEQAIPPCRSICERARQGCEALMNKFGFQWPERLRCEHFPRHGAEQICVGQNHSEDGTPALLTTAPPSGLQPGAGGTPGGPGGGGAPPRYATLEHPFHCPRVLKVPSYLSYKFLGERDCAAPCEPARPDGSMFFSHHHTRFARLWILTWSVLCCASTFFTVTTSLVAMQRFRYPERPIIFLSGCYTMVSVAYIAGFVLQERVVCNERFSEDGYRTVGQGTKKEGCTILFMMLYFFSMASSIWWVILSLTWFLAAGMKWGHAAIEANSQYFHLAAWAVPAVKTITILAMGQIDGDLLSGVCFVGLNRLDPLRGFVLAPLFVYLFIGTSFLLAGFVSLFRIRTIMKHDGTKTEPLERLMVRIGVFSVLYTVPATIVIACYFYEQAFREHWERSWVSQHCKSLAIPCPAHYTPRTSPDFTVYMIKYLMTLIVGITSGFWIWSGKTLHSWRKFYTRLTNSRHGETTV
molecule,measurement,setting,value
B1,increase of luciferase activity,canonical Wnt signaling,~450 fold
same,"concentration-dependent increase of the luciferase activity, in combination with frizzled-2",frizzled-2 (rFzd-2),twelve-fold
same,blocking of UM206-rhodamine binding by prior incubation,Fzd-1 and -2,completely abolished the binding of UM206-rhodamine
